Earlier results as cited in article PMC8945002.

Biological target: BfrB (recombinant) (Pseudomonas aeruginosa) (UniProt Q9HY79)
Assay: SPR

BfrB (recombinant) (Pseudomonas aeruginosa), sequence (Q9HY79 whole entry): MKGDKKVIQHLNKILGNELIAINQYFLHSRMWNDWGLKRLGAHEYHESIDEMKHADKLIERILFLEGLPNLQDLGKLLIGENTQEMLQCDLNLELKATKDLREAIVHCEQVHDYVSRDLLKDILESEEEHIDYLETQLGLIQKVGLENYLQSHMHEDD
Bfd, sequence (Q9HY80 whole entry): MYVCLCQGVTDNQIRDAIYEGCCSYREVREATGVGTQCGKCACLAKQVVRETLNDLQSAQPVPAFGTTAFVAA

## Bfd (from UniProt Q9HY80)
  Kd: 3.3 µM
